125 sequences from the supplement of paper PMC9112550, “Optimization of the antimicrobial peptide Bac7 by deep mutational scanning” (BMC Biology, 2022) can be followed below.

This data set has as its system Escherichia coli TOP10. Nature of the data set: shrunken log2 fold change of peptide-encoding DNA abundance (4.5 h post-induction vs induction); higher = less antimicrobial activity (less host growth inhibition). The conditions noted are these: time post-induction: 4.5 h; library: site-saturation at positions 5, 18, 19, 20.
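Note: peptides expressed intracellularly from a pBAD plasmid library in pooled LB shake-flask culture, induced with 0.3% L-arabinose, DNA abundance read by NGS, three biological replicates, DESeq2 with apeglm shrinkage.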

As for RRIRNRPPRLPRPRPRPTINPRP, the “shrunken log2 fold change” value is -0.515.

For RRIRRRPPRLPRPRPRPFKVPRP, the “shrunken log2 fold change” value was -0.0272.

Turning to RRIRKRPPRLPRPRPRPYKNPRP, the “shrunken log2 fold change” value was -0.176.

As to RRIRKRPPRLPRPRPRPCKPPRP, the “shrunken log2 fold change” value was -0.00919.

RRIRRRPPRLPRPRPRPLSNPRP: the “shrunken log2 fold change” value is -0.0853.

With RRIRDRPPRLPRPRPRPSRYPRP, the “shrunken log2 fold change” value was -0.219.

For RRIRTRPPRLPRPRPRPNSEPRP, the “shrunken log2 fold change” value stood at 0.0485.

For RRIRKRPPRLPRPRPRPYEPPRP, the “shrunken log2 fold change” value is -0.243.

Regarding RRIRTRPPRLPRPRPRPIVMPRP, the “shrunken log2 fold change” value was -0.114.

As to RRIRMRPPRLPRPRPRPQTVPRP, the “shrunken log2 fold change” value is 0.291.

Turning to RRIRFRPPRLPRPRPRPYHYPRP, the “shrunken log2 fold change” value is -0.521.

Turning to RRIRDRPPRLPRPRPRPPHFPRP, the “shrunken log2 fold change” value turned out to be 0.173.

Regarding RRIRLRPPRLPRPRPRPNVNPRP, the “shrunken log2 fold change” value is -0.28.

Regarding RRIRYRPPRLPRPRPRPLLEPRP, the “shrunken log2 fold change” value is -0.17.

Turning to RRIRWRPPRLPRPRPRPICVPRP, the “shrunken log2 fold change” value is -0.12.

Regarding RRIRKRPPRLPRPRPRPPYWPRP, the “shrunken log2 fold change” value turned out to be 0.429.

For RRIRRRPPRLPRPRPRPHPMPRP, the “shrunken log2 fold change” value amounted to 0.144.

Turning to RRIRCRPPRLPRPRPRPQSAPRP, the “shrunken log2 fold change” value is -0.0724.

Regarding RRIRDRPPRLPRPRPRPCGGPRP, the “shrunken log2 fold change” value is 0.132.

Turning to RRIRMRPPRLPRPRPRPQGMPRP, the “shrunken log2 fold change” value was 0.0363.

Take RRIRRRPPRLPRPRPRPRQVPRP: the “shrunken log2 fold change” value worked out at 0.466.

RRIRGRPPRLPRPRPRPDRNPRP: the “shrunken log2 fold change” value was determined as 0.0753.

For the sequence RRIRIRPPRLPRPRPRPWWMPRP, the “shrunken log2 fold change” value is -0.0772.

In the case of RRIRTRPPRLPRPRPRPDRYPRP, the “shrunken log2 fold change” value was determined as 0.04.

As for RRIRYRPPRLPRPRPRPHYNPRP, the “shrunken log2 fold change” value was -1.18.

On to RRIRMRPPRLPRPRPRPSQPPRP, for which the “shrunken log2 fold change” value stood at 0.22.

As for RRIRKRPPRLPRPRPRPNRLPRP, the “shrunken log2 fold change” value is 0.497.

Consider RRIRTRPPRLPRPRPRPVYMPRP, for which the “shrunken log2 fold change” value was -0.382.

As for RRIRERPPRLPRPRPRPATNPRP, the “shrunken log2 fold change” value is -0.386.

As for RRIRLRPPRLPRPRPRPFYIPRP, the “shrunken log2 fold change” value is -0.865.

As for RRIRSRPPRLPRPRPRPMDAPRP, the “shrunken log2 fold change” value was -0.0809.

Regarding RRIRRRPPRLPRPRPRPFNHPRP, the “shrunken log2 fold change” value is -0.275.

Turning to RRIRTRPPRLPRPRPRPGLSPRP, the “shrunken log2 fold change” value is 0.0345.

RRIRTRPPRLPRPRPRPDHCPRP: the “shrunken log2 fold change” value is -0.116.

RRIRSRPPRLPRPRPRPHVWPRP: the “shrunken log2 fold change” value worked out at 0.0587.

Regarding RRIRERPPRLPRPRPRPAFCPRP, the “shrunken log2 fold change” value is -0.21.

Consider RRIRIRPPRLPRPRPRPAFTPRP, for which the “shrunken log2 fold change” value was 0.106.

With RRIRSRPPRLPRPRPRPYLMPRP, the “shrunken log2 fold change” value is -0.566.

On to RRIRGRPPRLPRPRPRPWSRPRP, for which the “shrunken log2 fold change” value was -0.188.

Turning to RRIRPRPPRLPRPRPRPEWVPRP, the “shrunken log2 fold change” value turned out to be 0.332.

Take RRIRKRPPRLPRPRPRPMHHPRP: the “shrunken log2 fold change” value was -0.126.

Take RRIRARPPRLPRPRPRPVPDPRP: the “shrunken log2 fold change” value amounted to 0.493.

With RRIRQRPPRLPRPRPRPLYPPRP, the “shrunken log2 fold change” value is -0.228.

For RRIRRRPPRLPRPRPRPMQTPRP, the “shrunken log2 fold change” value was -0.00191.

Consider RRIRGRPPRLPRPRPRPSEQPRP, for which the “shrunken log2 fold change” value amounted to 0.301.

On to RRIRARPPRLPRPRPRPAAQPRP, for which the “shrunken log2 fold change” value stood at 0.916.

With RRIRNRPPRLPRPRPRPCAYPRP, the “shrunken log2 fold change” value was -0.139.

Consider RRIRARPPRLPRPRPRPEKLPRP, for which the “shrunken log2 fold change” value is 0.758.

With RRIRIRPPRLPRPRPRPIEQPRP, the “shrunken log2 fold change” value was -0.489.

For the sequence RRIRMRPPRLPRPRPRPYDGPRP, the “shrunken log2 fold change” value is -0.0589.

Consider RRIRHRPPRLPRPRPRPISKPRP, for which the “shrunken log2 fold change” value was -0.929.

RRIRLRPPRLPRPRPRPFHSPRP: the “shrunken log2 fold change” value is -0.177.

In the case of RRIRSRPPRLPRPRPRPQQNPRP, the “shrunken log2 fold change” value is -0.0687.

For the sequence RRIRYRPPRLPRPRPRPEPNPRP, the “shrunken log2 fold change” value was -0.0357.

As for RRIRLRPPRLPRPRPRPTSSPRP, the “shrunken log2 fold change” value was -0.178.

Consider RRIRQRPPRLPRPRPRPWKKPRP, for which the “shrunken log2 fold change” value was -0.000921.

Take RRIRIRPPRLPRPRPRPVTSPRP: the “shrunken log2 fold change” value was -0.0328.

As to RRIRFRPPRLPRPRPRPEKFPRP, the “shrunken log2 fold change” value turned out to be 0.012.

Turning to RRIRMRPPRLPRPRPRPKVWPRP, the “shrunken log2 fold change” value was 1.04.

As for RRIRHRPPRLPRPRPRPTFGPRP, the “shrunken log2 fold change” value worked out at 0.0378.

With RRIRIRPPRLPRPRPRPKLLPRP, the “shrunken log2 fold change” value turned out to be 0.0419.

For RRIRVRPPRLPRPRPRPYEWPRP, the “shrunken log2 fold change” value is -0.303.

As for RRIRPRPPRLPRPRPRPQNAPRP, the “shrunken log2 fold change” value was -0.0677.

RRIRQRPPRLPRPRPRPAAMPRP: the “shrunken log2 fold change” value is 0.248.

RRIRQRPPRLPRPRPRPIWIPRP: the “shrunken log2 fold change” value was -0.206.

For the sequence RRIRHRPPRLPRPRPRPSYSPRP, the “shrunken log2 fold change” value was -0.314.

For the sequence RRIRVRPPRLPRPRPRPDRNPRP, the “shrunken log2 fold change” value is -0.162.

With RRIRKRPPRLPRPRPRPDYLPRP, the “shrunken log2 fold change” value turned out to be 0.111.

RRIRTRPPRLPRPRPRPNDVPRP: the “shrunken log2 fold change” value is -0.0532.

For the sequence RRIRSRPPRLPRPRPRPNREPRP, the “shrunken log2 fold change” value is -0.138.

Take RRIRQRPPRLPRPRPRPGMDPRP: the “shrunken log2 fold change” value came out at 0.342.

For RRIRTRPPRLPRPRPRPQCVPRP, the “shrunken log2 fold change” value is -0.12.

As to RRIRRRPPRLPRPRPRPWKGPRP, the “shrunken log2 fold change” value is -0.209.

Regarding RRIRDRPPRLPRPRPRPVPAPRP, the “shrunken log2 fold change” value came out at 0.341.

As to RRIRERPPRLPRPRPRPITTPRP, the “shrunken log2 fold change” value was -0.03.

Regarding RRIRTRPPRLPRPRPRPDFQPRP, the “shrunken log2 fold change” value is 0.00444.

RRIRWRPPRLPRPRPRPTMFPRP: the “shrunken log2 fold change” value came to 0.0589.

Turning to RRIRERPPRLPRPRPRPKSFPRP, the “shrunken log2 fold change” value was found to be 0.0203.

Regarding RRIRGRPPRLPRPRPRPWNWPRP, the “shrunken log2 fold change” value amounted to 0.232.

Consider RRIRKRPPRLPRPRPRPFKQPRP, for which the “shrunken log2 fold change” value came out at 0.0339.

Consider RRIRKRPPRLPRPRPRPRFYPRP, for which the “shrunken log2 fold change” value was determined as 0.33.

As for RRIRRRPPRLPRPRPRPRAMPRP, the “shrunken log2 fold change” value was determined as 0.145.

RRIRVRPPRLPRPRPRPEFRPRP: the “shrunken log2 fold change” value was found to be 0.463.

Consider RRIRERPPRLPRPRPRPPMEPRP, for which the “shrunken log2 fold change” value is -0.0809.

RRIRERPPRLPRPRPRPYLNPRP: the “shrunken log2 fold change” value is -0.326.

On to RRIRNRPPRLPRPRPRPICEPRP, for which the “shrunken log2 fold change” value came to 0.0602.

Take RRIRVRPPRLPRPRPRPAQEPRP: the “shrunken log2 fold change” value worked out at 0.0593.

Consider RRIRMRPPRLPRPRPRPRIEPRP, for which the “shrunken log2 fold change” value was -0.0903.

As to RRIRVRPPRLPRPRPRPAIPPRP, the “shrunken log2 fold change” value was -0.356.

Turning to RRIRNRPPRLPRPRPRPEFYPRP, the “shrunken log2 fold change” value was -0.243.

Take RRIRARPPRLPRPRPRPGMIPRP: the “shrunken log2 fold change” value came out at 0.237.

In the case of RRIRQRPPRLPRPRPRPATSPRP, the “shrunken log2 fold change” value amounted to 0.0218.

As to RRIRRRPPRLPRPRPRPPDQPRP, the “shrunken log2 fold change” value worked out at 0.764.

Consider RRIRARPPRLPRPRPRPTSNPRP, for which the “shrunken log2 fold change” value was 0.00789.

Take RRIRHRPPRLPRPRPRPDICPRP: the “shrunken log2 fold change” value was -0.622.

RRIRGRPPRLPRPRPRPTKSPRP: the “shrunken log2 fold change” value worked out at 0.583.

Take RRIRKRPPRLPRPRPRPSKMPRP: the “shrunken log2 fold change” value turned out to be 0.025.

As to RRIRVRPPRLPRPRPRPMHRPRP, the “shrunken log2 fold change” value was -0.0728.

Turning to RRIRRRPPRLPRPRPRPWVSPRP, the “shrunken log2 fold change” value is -0.0738.

As for RRIRARPPRLPRPRPRPNGSPRP, the “shrunken log2 fold change” value amounted to 0.304.

With RRIRPRPPRLPRPRPRPGMYPRP, the “shrunken log2 fold change” value was -0.0544.

As for RRIRNRPPRLPRPRPRPDWCPRP, the “shrunken log2 fold change” value was 0.0226.

As for RRIRWRPPRLPRPRPRPQFRPRP, the “shrunken log2 fold change” value was -0.0234.

For RRIRGRPPRLPRPRPRPRLRPRP, the “shrunken log2 fold change” value turned out to be 0.87.

With RRIRQRPPRLPRPRPRPNETPRP, the “shrunken log2 fold change” value was -0.0269.

For RRIRARPPRLPRPRPRPDHGPRP, the “shrunken log2 fold change” value was -0.144.

As to RRIRTRPPRLPRPRPRPFHYPRP, the “shrunken log2 fold change” value is -0.0376.

For RRIRFRPPRLPRPRPRPANRPRP, the “shrunken log2 fold change” value was -0.0406.

For the sequence RRIRLRPPRLPRPRPRPMGAPRP, the “shrunken log2 fold change” value amounted to 0.316.

In the case of RRIRKRPPRLPRPRPRPPYIPRP, the “shrunken log2 fold change” value was -0.69.

As for RRIRHRPPRLPRPRPRPYCNPRP, the “shrunken log2 fold change” value was -0.456.

On to RRIRDRPPRLPRPRPRPMCYPRP, for which the “shrunken log2 fold change” value is -0.0124.

Turning to RRIRPRPPRLPRPRPRPYFQPRP, the “shrunken log2 fold change” value was -0.593.

Regarding RRIRFRPPRLPRPRPRPDQAPRP, the “shrunken log2 fold change” value is -0.0167.

For the sequence RRIRARPPRLPRPRPRPRESPRP, the “shrunken log2 fold change” value was 0.198.

For RRIRRRPPRLPRPRPRPFTWPRP, the “shrunken log2 fold change” value is -0.126.

With RRIRFRPPRLPRPRPRPTCCPRP, the “shrunken log2 fold change” value was -0.0828.

In the case of RRIRRRPPRLPRPRPRPYANPRP, the “shrunken log2 fold change” value is -0.0552.

In the case of RRIRFRPPRLPRPRPRPETSPRP, the “shrunken log2 fold change” value amounted to 0.0493.

RRIRTRPPRLPRPRPRPTEDPRP: the “shrunken log2 fold change” value stood at 0.196.

As for RRIRRRPPRLPRPRPRPMCPPRP, the “shrunken log2 fold change” value is -0.119.

Turning to RRIRWRPPRLPRPRPRPPWKPRP, the “shrunken log2 fold change” value is 0.24.

As to RRIRNRPPRLPRPRPRPRPAPRP, the “shrunken log2 fold change” value is 0.313.

With RRIRERPPRLPRPRPRPSAGPRP, the “shrunken log2 fold change” value is -0.118.

As for RRIRLRPPRLPRPRPRPSQQPRP, the “shrunken log2 fold change” value was -0.0225.
